In the supplement of paper PMC7877785:
± gives the uncertainty stated by the source.

Assay: self-splicing fitness, log relative to wild type (ln ratio); higher = more splicing; Tetrahymena group I intron in knt gene, E. coli kanamycin selection, DiMSum; sequences stand for … in CUCUCU…GGAGGGAAAAGUUAUCAGGCAUGCACCUGGUAGCUAGUCUUUAAACCAAUAGAUUGCAUCGGUUUAAAAGGCAAGACCGUCAAAUUGCGGGAAAGGGGUCAACAGCCGUUCAGUACCAAGUCUCAGGGGAAACUUUGAGAUGGCCUUGCAAAGGGUAUGGUAAUAAGCUGACGGACAUGGUCCUAACCACGCAGCCAAGUCCUAAGUCAACAGAUCUUCUGUUGAUAUGGAUGCAGUUCACAGACUAAAUGUCGGUCGGGGAAGAUGUAUUCUUCUCAUAAGAUAUAGUCGGACCUCUCCUUAAUGGGAGCUAGCGGAUGAAGUGAUGCAACACUGGAGCCGCUGGGAACUAAUUUGUAUGCGAAAGUAUAUUGAUUAGUUUUGGAGUACUCGUGGUCG
In short: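 Library with all eight P1ex-region intron nucleotides randomised, intron inside the knt kanamycin-resistance gene on pET-22b(+), in E. coli BL21(DE3). Cells grew overnight at 37°C or 30°C on LB agar with or without 25 μg/mL kanamycin (plus 100 μg/mL carbenicillin, 50 μM IPTG, 0.2% rhamnose), in six replicate transformations. Pooled colonies were amplicon-sequenced on Illumina HiSeq 2500. DiMSum fitness is the error-weighted combination of wild-type-normalised replicate fold changes, kanamycin versus none.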

Sequence	self-splicing fitness (ln) (30 °C)	self-splicing fitness (ln) (37 °C)
GGGUAGCAAUAUUACGGAAU	-0.368 ± 0.12	-0.661 ± 0.19
GGGUAGCAAUAUUACGGCCG	-0.902 ± 0.086	-0.295 ± 0.15
GGGUAGCAAUAUUACGGCCU	-3.57 ± 0.38	-2.14 ± 0.46
GGGUAGCAAUAUUACGGGAU	-3.17 ± 0.22	-2.04 ± 0.23
GGGUAGCAAUAUUACGGUUC	-0.821 ± 0.095	0.258 ± 0.13
GGGUAGCAAUAUUACGUCAG	–	-0.355 ± 0.32
GGGUAGCAAUAUUACGUCGC	-1.04 ± 0.23	0.272 ± 0.21
GGGUAGCAAUAUUACGUCUA	-0.297 ± 0.15	0.226 ± 0.16
GGGUAGCAAUAUUACGUGGA	-3.45 ± 0.2	-2.02 ± 0.097
GGGUAGCAAUAUUACGUUCA	0.0201 ± 0.096	-0.0805 ± 0.12
GGUAAGCAAUAUUACGACGG	-3.74 ± 0.33	-2.84 ± 0.34
GGUAAGCAAUAUUACGAGGG	-2.38 ± 0.14	-2.98 ± 0.24
GGUAAGCAAUAUUACGAUAG	-3.14 ± 0.2	-2.14 ± 0.24
GGUAAGCAAUAUUACGCAAG	-3.39 ± 0.26	-2.03 ± 0.22
GGUAAGCAAUAUUACGCACU	–	-2.23 ± 0.2
GGUAAGCAAUAUUACGCCCC	-3.4 ± 0.45	–
GGUAAGCAAUAUUACGCCCU	-1.86 ± 0.28	-1.35 ± 0.28
GGUAAGCAAUAUUACGCCGC	-3.46 ± 0.43	-1.41 ± 0.27
GGUAAGCAAUAUUACGCUAA	-2.29 ± 0.18	0.0407 ± 0.15
GGUAAGCAAUAUUACGCUAU	-2.53 ± 0.17	-2.05 ± 0.27
GGUAAGCAAUAUUACGGAGA	-3.47 ± 0.23	-2.8 ± 0.22

Sequence	self-splicing fitness (ln) (30 °C)	self-splicing fitness (ln) (37 °C)
GGUAAGCAAUAUUACGGAUU	-0.823 ± 0.094	-0.646 ± 0.11
GGUAAGCAAUAUUACGGGAU	-2.82 ± 0.27	-0.913 ± 0.21
GGUAAGCAAUAUUACGGGCG	-0.129 ± 0.097	-0.279 ± 0.13
GGUAAGCAAUAUUACGUACU	-1.82 ± 0.32	–
GGUAAGCAAUAUUACGUCCU	-1.17 ± 0.2	-0.999 ± 0.23
GGUCAGCAAUAUUACGAAAC	-0.257 ± 0.22	-0.396 ± 0.22
GGUCAGCAAUAUUACGAUUG	-0.673 ± 0.073	0.0247 ± 0.097
GGUCAGCAAUAUUACGCGAA	-0.889 ± 0.069	0.00884 ± 0.088
GGUCAGCAAUAUUACGCGUC	-1.46 ± 0.17	0.149 ± 0.19
GGUCAGCAAUAUUACGCGUG	-0.989 ± 0.077	-0.272 ± 0.083
GGUCAGCAAUAUUACGGAAC	-1.04 ± 0.1	-0.383 ± 0.14
GGUCAGCAAUAUUACGGACU	-1.49 ± 0.44	–
GGUCAGCAAUAUUACGGAUU	-0.77 ± 0.079	-0.499 ± 0.1
GGUCAGCAAUAUUACGGCCG	-1.83 ± 0.33	-1.64 ± 0.33
GGUCAGCAAUAUUACGGCGA	0.307 ± 0.14	0.838 ± 0.14
GGUCAGCAAUAUUACGGGUU	-1.25 ± 0.083	-0.194 ± 0.089
GGUCAGCAAUAUUACGGUCA	-0.669 ± 0.13	0.518 ± 0.13
GGUCAGCAAUAUUACGGUGU	-1.44 ± 0.15	0.00529 ± 0.14
GGUCAGCAAUAUUACGUCAA	-0.511 ± 0.071	0.0808 ± 0.082
GGUCAGCAAUAUUACGUGAG	0.0154 ± 0.061	0.241 ± 0.085
GGUCAGCAAUAUUACGUGGG	-2.15 ± 0.089	-2.38 ± 0.15

Sequence	self-splicing fitness (ln) (30 °C)	self-splicing fitness (ln) (37 °C)
GGUCAGCAAUAUUACGUUCU	-0.13 ± 0.1	0.22 ± 0.11
GGUGAGCAAUAUUACGACAC	-0.5 ± 0.18	0.114 ± 0.22
GGUGAGCAAUAUUACGAGAG	-4.03 ± 0.27	-2.38 ± 0.18
GGUGAGCAAUAUUACGAGCG	-0.194 ± 0.11	0.303 ± 0.14
GGUGAGCAAUAUUACGAUGA	-3.32 ± 0.29	-2.29 ± 0.21
GGUGAGCAAUAUUACGAUGU	-2.19 ± 0.15	-1.69 ± 0.23
GGUGAGCAAUAUUACGAUUG	-3.77 ± 0.39	-1.79 ± 0.4
GGUGAGCAAUAUUACGCAGG	-3.7 ± 0.34	-2.07 ± 0.41
GGUGAGCAAUAUUACGCGAG	–	-1.97 ± 0.18
GGUGAGCAAUAUUACGCGCG	-0.933 ± 0.087	-0.502 ± 0.12
GGUGAGCAAUAUUACGCGGA	-2.35 ± 0.19	-1.57 ± 0.15
GGUGAGCAAUAUUACGCUAU	-1.77 ± 0.32	-2.94 ± 0.4
GGUGAGCAAUAUUACGGAGG	-1.6 ± 0.27	–
GGUGAGCAAUAUUACGGAUC	-0.748 ± 0.076	0.263 ± 0.11
GGUGAGCAAUAUUACGGAUG	-3.73 ± 0.22	-2.62 ± 0.22
GGUGAGCAAUAUUACGGCGU	-1.29 ± 0.14	-0.494 ± 0.17
GGUGAGCAAUAUUACGGGAC	-3.63 ± 0.29	-1.85 ± 0.19
GGUGAGCAAUAUUACGGGGA	–	-2.42 ± 0.28
GGUGAGCAAUAUUACGGUCG	-1.29 ± 0.077	-0.612 ± 0.1
GGUGAGCAAUAUUACGGUUU	-2.12 ± 0.13	-1.25 ± 0.18
